Laboratory results reported in publication PMC13125535, “Reprogramming of bacterial virulence by lysine acetylation” (Nature Communications, 2026).

Biological target: the molecule itself
Test: SEC; analytical SEC on a calibrated Superdex 200 10/300 GL column; 25 mM Tris-HCl pH 7.5, 150 mM NaCl, 2 mM β-mercaptoethanol; 1.0–2.0 mg/mL protein, 100 µL applied; tetramer to monomers

B1: SnCE1_(104-310) C256A (non-acetylated) (domain or fragment)
chain: GEKDRFLIDERNWLNNQHLGLYSLFLQEKYGPEVFFPFGGWTYVFPGLTDRFFKEDSYHILDVRAKRIKSFLDYKSITYPLFIGGNHWGLLFIDREKRTVEYYDSKINYGNYEEGLQGIKDVAAKFTKYDPGEKPYTYLEKIKKKLQPDGYQAGPWALYFLEHRLENPEVDFNQLDLNEAQNMIAKYRFAVRDKLLELQKNGNTLYC
notes: SnCE1, Simkania negevensis, UniProt F8L4W9, residues 104-310; Not acetylated; no proteolytic processing seen for this truncated protein; not shown: GST, N-terminal, cleaved
With B1 the “stoichiometry N” value was 4.

B2: SnCE1 C256A AcK209 (domain or fragment)
chain: SLTSKAICRYSLSSVESIQPKTQVKAIEPKGEKDRFLIDERNWLNNQHLGLYSLFLQEKYGPEVFFPFGGWTYVFPGLTDRFFKEDSYHILDVRAKRIKSFLDYKSITYPLFIGGNHWGLLFIDREKRTVEYYDSKINYGNYEEGLQGIKDVAAKFTKYDPGEKPYTYLEKIKKKLQPDGYQAGPWALYFLEHRLENPEVDFNQLDLNEAQNMIAKYRFAVRDKLLELQKNGNTLYC
modifications: acetyl-lysine at 209
notes: SnCE1, Simkania negevensis, UniProt F8L4W9
In the case of B2, the “stoichiometry N” value is reported as 4.
